Source: patent publication US20200399381A1 (I MAB BIOPHARMA US, published 2020)
Residue numbers refer to the chain shown, from its start. Values belong to the binder of their own block, whether it stands above or below them.

Columns and labels:
[1] = biological target: T1, human IFNAR-1 on cells (human, UniProt P17181 28-557); assay: cell-based or functional assay
T1 sequence (looked up): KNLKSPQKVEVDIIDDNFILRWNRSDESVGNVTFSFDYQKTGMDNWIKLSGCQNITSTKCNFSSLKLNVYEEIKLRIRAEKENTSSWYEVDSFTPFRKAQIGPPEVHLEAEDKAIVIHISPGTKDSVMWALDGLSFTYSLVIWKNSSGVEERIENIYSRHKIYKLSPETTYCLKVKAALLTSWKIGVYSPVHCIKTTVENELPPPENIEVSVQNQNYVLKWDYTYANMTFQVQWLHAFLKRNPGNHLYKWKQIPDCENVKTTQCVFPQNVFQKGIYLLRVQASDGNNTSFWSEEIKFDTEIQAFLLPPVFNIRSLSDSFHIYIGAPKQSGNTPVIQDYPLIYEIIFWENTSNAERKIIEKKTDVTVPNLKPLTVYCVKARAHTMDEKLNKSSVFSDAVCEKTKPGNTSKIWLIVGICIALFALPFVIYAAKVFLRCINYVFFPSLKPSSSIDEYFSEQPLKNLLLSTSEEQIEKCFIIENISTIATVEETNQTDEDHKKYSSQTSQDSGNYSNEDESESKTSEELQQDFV

[2] = biological target: T2, recombinant His-tagged human IFNAR-1-ECD protein (human, UniProt P17181 28-436); assay: ELISA, coated His-tagged IFNAR-1
T2 construct: extracellular domain; the Biacore text says His-tagged human IFNAR-1-ECD; also called His-tagged IFNAR-1; hIFNAR-1 protein; not shown: His tag
T2 sequence (looked up): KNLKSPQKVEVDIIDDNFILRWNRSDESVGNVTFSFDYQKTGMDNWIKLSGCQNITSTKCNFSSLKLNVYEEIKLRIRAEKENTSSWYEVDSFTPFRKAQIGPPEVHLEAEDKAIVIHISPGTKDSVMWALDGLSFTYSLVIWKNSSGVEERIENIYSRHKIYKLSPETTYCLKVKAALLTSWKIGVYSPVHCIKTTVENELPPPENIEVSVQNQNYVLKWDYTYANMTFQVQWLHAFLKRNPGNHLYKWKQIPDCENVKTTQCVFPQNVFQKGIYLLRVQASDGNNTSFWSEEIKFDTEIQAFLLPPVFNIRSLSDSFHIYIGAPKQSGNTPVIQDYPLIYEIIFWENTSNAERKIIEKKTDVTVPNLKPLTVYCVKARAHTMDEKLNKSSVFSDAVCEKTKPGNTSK
Method: This example tested the binding properties of the anti-IFNAR-1 mouse antibodies to the human IFNAR-1 proteins by ELISA assay. In short, His-tagged IFNAR-1 was coated at 0.5 μg/ml overnight and then blocked by 5% BSA in PBS. Serial diluted anti-IFNAR-1 antibodies were incubated with the coated antigen for 1 h at room temperature. The resulting plates were washed with PBS/T and incubated with goat anti-mouse IgG-HRP for 1 h at room temperature. The plates were developed with TMB substrate and analyzed by spectrophotometer at OD 450-630 nm.

B4: 370E5 (antibody, V domains shown)
VH: EVQLQQSGAELVKPGASVKLSCTASGFNIKDYYIHWVKQRTEQGLEWIGRIDPEDGETKYAPKFQGKATITADTSSNTAYLQLSSLTSEDTAVYYCARFGGLTAMDYWGQGTSVTVSS
VL: DIVMTQSQKFMSTSVGDRVSVTCKASQNVGTNVAWYQQKPGQSPKALIYATSYRYSGVPDRFTGSGSGTDFTLTISNVQSEDLAEYFCQQYNNYPYTFGGGTKLEIK
notes: Hybridoma-derived monoclonal antibody
EC50 (nM), inhibition of IFNα2b-induced SEAP reporter in HEK-Blue IFNα/β cells [1]: 2.17 nM | EC50 [2]: 0.052 nM

B5: 104A3 (antibody, V domains shown)
VH: EVQLQQSGAELVKPGASVKVSCTGSGFNIKDYYIHWVKQRTEQGLEWIGRIDPEDGETKYAPKFQGKATITSDTSSNTAYLQLSSLTSGDTAVYFCARYDGYYCFDYWGQGTTLTVSS
VL: B4 VL with A46P, A50S, E81A, E85A, K103R
notes: as for B4
EC50 (nM), inhibition of IFNα2b-induced SEAP reporter in HEK-Blue IFNα/β cells [1]: 1.31 nM | EC50 [2]: 0.056 nM

B8: 124D12 (antibody, V domains shown)
VH: B5 VH with K67R, F95Y
VL: B4 VL with A46P, A50S, E81A, E85A, K103R
notes: as for B4
EC50 (nM), inhibition of IFNα2b-induced SEAP reporter in HEK-Blue IFNα/β cells [1]: 0.981 nM | EC50 [2]: 0.062 nM

B9: 106A7 (antibody, V domains shown)
VH: EVQLQQSGADLVKPGASVKLSCTTSGFNIKDYYMHWVNQRTEQGLEWIGRIDPEDGETKYAPKFQGKATITADTSSNTAYLQLSSLTSEDTAVYYCARDWGHSFDYWGQGTTLTVSS
VL: DIVMTQSQKFMSTSVGDRVSVTCKASQNVGTTVAWYQQKPGQSPKTLIYSASYRYSGVPDRFTGSGSGTDFTLTISNVQSEDLAEYFCQQYNSYTFGGGTKLEMK
notes: as for B4
EC50 (nM), inhibition of IFNα2b-induced SEAP reporter in HEK-Blue IFNα/β cells [1]: 3.52 nM | EC50 [2]: 0.099 nM

Next, values leading:

EC50 (nM), inhibition of IFNα2b-induced SEAP reporter in HEK-Blue IFNα/β cells [1]: 1.27 nM | EC50 [2]: 0.137 nM
B1: 402G3 (antibody, V domains shown)
VH: QVQLQQSGAELVKPGSSVKISCKASGFTFTSHFIHWIKQQPGNGLKWIGWIYPGDDDTEYNHKFNGKATLTADKSSSTAYMHLSSLTSEDSAVYFCARRVEYYNGGFAYWGQGTLVTVSS
VL: DVQMTQSPSYLAAPPGESVSISCKASKNIRNNLGWYQERPGKTPNLLIHSGSTLQSGAPSRFSGGGSGTDFTLTIRSLESEDSAVYYCQQYDQYPLTFGSGTKLEIK
notes: as for B4

EC50 (nM), inhibition of IFNα2b-induced SEAP reporter in HEK-Blue IFNα/β cells [1]: 0.161 nM | EC50 [2]: 0.028 nM
B2: 487E3 (antibody, V domains shown)
VH: EVQLQQSGAELVKPGASVKLSCSASGFNIKDCYIHWVKQRTEQGLEWIGRIDPEDGETKYAPKFQAKATITADTSSNTAYLQLNSLTSEDTAVYYCARHCNFLYFDYWGQGSTLTVS
VL: DIVMTQSQKSMSTSLGDRVTVTCKASQNVGTIVAWYQLKPGQSPKTLIYSASYRSSGVPDRFTGSGSGTDFTLTISNVQSEDLAEYFCQQYNNYPVIFGSGTKLEIR
notes: as for B4

EC50 (nM), inhibition of IFNα2b-induced SEAP reporter in HEK-Blue IFNα/β cells [1]: 1.3 nM | EC50 [2]: 0.733 nM
B3: 430H6 (antibody, V domains shown)
VH: QVTLKESGPGILQPSQTLSLTCTFSGFSLNTYGMGVGWIRQPSGKGLEWLANIWWDDDKYYNPSLKNRLTISKDTSNNQAFLKITNVDTADTATYFCARHPLPGYKDNYVVDAWGQGASVTVSS
VL: DVVLTQTPGSLSVTLGDQASISCRSSQSLEYSDQYTYLEWYLQKSGQSPQLLIYGVSNRFSGVPDRFIGSGSGTDFTLKISRVEPEDLGVYYCFQATHDPYTFGAGTKLELK
notes: as for B4

EC50 (nM), inhibition of IFNα2b-induced SEAP reporter in HEK-Blue IFNα/β cells [1]: 0.286 nM | EC50 [2]: 0.015 nM
B6: 485G10 (antibody, V domains shown)
VH: B4 VH with A24G, A92V, A97G, F99Y, G100H, L102Y, T103W, M105L
VL: B4 VL with A25T, A46P, A50S, T74I, Q89H, N92F, N93S, K103L
notes: Hybridoma-derived monoclonal antibody; also called mouse antibody 485G10

EC50 (nM), inhibition of IFNα2b-induced SEAP reporter in HEK-Blue IFNα/β cells [1]: 0.824 nM | EC50 [2]: 0.054 nM
B7: 392D6 (antibody, V domains shown)
VH: B4 VH with E1A, A9T, T23S, I34V, R40K, I70V, L81M, A97T, T103D
VL: B4 VL with A46P, A50S, S56N, D70E, Y91F, N93R
notes: as for B4
